Test results as given in paper PMC3699407 (Nature biotechnology, 2012).

Molecular target: the molecule itself
Assay: SEC

B1: wild-type pea cytosolic ascorbate peroxidase (APX) (enzyme)
chain: GKSYPTVSPDYQKAIEKAKRKLRGFIAEKKCAPLILRLAWHSAGTFDSKTKTGGPFGTIKHQAELAHGANNGLDIAVRLLEPIKEQFPIVSYADFYQLAGVVAVEITGGPEVPFHPGREDKPEPPPEGRLPDATKGSDHLRDVFGKAMGLSDQDIVALSGGHTIGAAHKERSGFEGPWTSNPLIFDNSYFTELLTGEKDGLLQLPSDKALLTDSVFRPLVEKYAADEDVFFADYAEAHLKLSELGFAEA
- stoichiometry N: 2
